Assay: label from the status in PepcDB records

Sequence	protein production
MSQLNSVWVFSDNPERYAELFGGAQQWGQQVYAIVQNTEQAQAVMPYGPKCIYVLEQNDALQRTENYAESIAALLKDKHPAMLLLAATKRGKALAARLSVQLNAALVNDATAVDIVDGHICAEHRMYGGLAFAQEKINSPLAIITLAPGVQEPCTRDISHQCPTETVPYVAPRHEILCRERRAKAASSVDLSKAKRVVGVGRGLAAQDDLKMVHELAAVLNAEVGCSRPIAEGENWMERERYIGVSGVLLKSDLYLTLGISGQIQHMVGGNGAKVIVAINKDKNAPIFNYADYGLVGDIYKVVPALISQLNR	failed
MSQPPLLSGPGGRLLGAALLIGLLAGCGSVSTGNAGSGTVGTSTTSRADVMTFQPSSLPVSYVGETYNVQVGVTGGVGPYGYRLTAGTLPPGLKFAGGALSGTPTKAGSYSFAIQATDANLSTRVQEYTMNVDALPPLALKPTLPPGEIRGETRIPVTIQAPRAVRAARLSWDLGKDVQVTRVQPADAGSVVFWQQRGSVLTVDLGFRTVPRPDARIALITVKPAKAVTLKADALGYEARDGSGKMLVDKKRPGSEPVKPAEQPGDPKVDPKAADQKATDQKATDPKTVDPKTVTPADTVEGGPLPSPALPTPSLPPTLPPVTTPPANTPPVPTPTPPANQPAPAPAPQPAPAPQPTPPSGTGGALEHHHHHH	not failed
MSQQSSSPTKEDNNSSSPVVPNPDSVPPQLSSPALFYSSSSSQGDIYGRNNSQNLSQGEGNIRAAIGSSPLNFPSSSQRQNSDVFQSQGRQGRIRSSASASGRSRYHSDLRSDRALPTSSSSLGRNGQNRVHMRRNDIHTSDLSSPRRIVDFDTRSGVNTLDTSSSSAPPSEASEPLRIIWGTNVSIQECTTNFRNFLMSFKYKFRKILDEREEFINNTTDEELYYIKQLNEMRELGTSNLNLDARNLLAYKQTEDLYHQLLNYPQEVISIMDQTIKDCMVSLIVDNNLDYDLDEIETKFYKVRPYNVGSCKGMRELNPNDIDKLINLKGLVLRSTPVIPDMKVAFFKCNVCDHTMAVEIDRGVIQEPARCERIDCNEPNSMSLIHNRCSFADKQVIKLQETPDFVPDGQTPHSISLCVYDELVDSCRAGDRIEVTGTFRSIPIRANSRQRVLKSLYKTYVDVVHVKKVSDKRLDVDTSTIEQELMQNKVDHNEVEEVRQITDQDLAKIREVAAREDLYSLLARSIAPSIYELEDVKKGILLQLFGGTNKTFTKGGRYRGDINILLCGDPSTSKSQILQYVHKITPRGVYTSGKGSSAVGLTAYITRDVDTKQLVLESGALVLSDGGVCCIDEFDKMSDSTRSVLHEVMEQQTISIAKAGIITTLNARSSILASANPIGSRYNPNLPVTENIDLPPPLLSRFDLVYLVLDKVDEKNDRELAKHLTNLYLEDKPEHISQDDVLPVEFLTMYISYAKEHIHPIITEAAKTELVRAYVGMRKMGDDSRSDEKRITATTRQLESMIRLAEAHAKMKLKNVVELEDVQEAVRLIRSAIKDYATDPKTGKIDMNLVQTGKSVIQRKLQEDLSREIMNVLKDQASDSMSFNELIKQINEHSQDRVESSDIQEALSRLQQEDKVIVLGEGVRRSVRLNNRV	failed
MSQSKEDKIRSILEAKNIKSNFQNKENLSEFNEKKASKRAEDLLDVYYNTLSTADMEFPYWYNREYRKSDGDIPVVRRAKALKAAFSHMTPNIIPGEKIVMQKTRHYRGSFPMPWVSESFFVAQGEQMREEAKKLASNTADELTKFGSGGGNVTESFGNVVSIAGKFGMRKEEVPVLVKMAKEWVGKSVEDLGFHYEKMMPDYDLKENLMSTLICMFDSGYTLPQGREVINYFYPLNYGLDGIIEMAKECKKAVAGNASGDGLIGMDRLYFYEAVIQVIEGLQTWILNYAKHAKYLESIETDLEAKKEYSDLVEILEHIAHKQPRTFREALQLTYTIHIASVNEDAISGMSIGRFGQILYPWYEQDIEKGLITKEEVIELLELYRIKITCIDCFASAGVNGGVLSGNTFNTLSIGGLKEDGSTGANELEELLLEASMRCRTPQPSLTMLYDEKLPEDFLMKAAECTKLGSGYPAWVNNSNGTTFMMKQFADEGMTVEEARAFALGGCLETSPGCWKQLTLNGKTYSIAGGAGQSAGSGVHFIANPKILELVLMNGKDYRMNIQVFEPHNKPLDTYEEVIEVFKDYYKQAINVLERANNIELDIWRKFDTSIINSLLKPDCLDKGQHIGNMGYRYNATLNVETCGTVTMVNSFAALKKLVYDDKAFTIEEMKDAILNNFGFKDALEVGNYSMADQVKVDKTGKYDAIYKACLDAPKYGNNDLYADNILKNYEVWLSKVCEEAQSLYAKKMYPCQISVSTHGPQGAATLATPDGRLSGTTYSDGSVSAYAGTDKNGVYALFESATIWDQAVVQNSQMNLKLHPTTIKGQQGTKKLLDLTRSYLRKGGFHIQYNVVDSETLKDAQKNPDNYRQLMVRVAGFTQYWCELGKPIQDEVIARTEYEGV	failed
MSQSMYSYPAMTANVGDMAGYTGTTQSLGADIASERTAPSRACQGDLGMSHQDWQAQWNQAMEALARAYRRCRRALRQIGVLERPVGDSSDCGTIRVGSFRGRWLDPRHAGPATAADAGD	failed
MSQSNHPGGKDAGSIPRVLISADRSSSGKTTISMGLMAALVSRGYKVQPFKVALDYIDPSYHTEITGRFCRNLDGYLMDEHGILDVYTHACETGGGADIAIIEGVRGLFEGFESLSDVGSTAQIAKILKCPVVFVINARSITRSAAALIGGYKNFDPDVEIAGVILNNIGGRRHAQKAKEAIEHYTGVPVLGIIPRDPSMQISMRHLGLMPALEGRRRFGDGGFENRLHGIEEIINKGIDVDRFLGIAESAKPLTALENSIFSPAVNENSQKPKIGVALDEAFNFYYRDNIDLLEIAGAEIVYFSPVNDPGLPEVDGLYIGGGYPELFAAELEANETMRKSIKEASAAGMPIYAECGGLMYLTEKISTGVPGKGTYHDASMPESTYSMVGALPGHTIMGQTRVVSYNIGTLARDCPIGKKGNSFKGHEFHHSEILEIPDDAEFAIALTRGTGIRGDRDGLIVNNTIGSYAHLHGVAYRELAGSLVEAARKFRDSRVSSLEHHHHHH	not failed
MSQSPSPPDSPSASPDSPSASPMHAFLLCAGFGTRMRPVTAETPKSLVTVAGRPLLDHLLDELTAWSALTEIHVAVNHEDAPAFREWAAGHRADLETQGIGLHLHDDGVEAPDDQLGCVGDLRFLLDAVGLPADGALVSGGDSLYRFPLAPLLNAYDGTTNRVLALHEPDPERRAQSSVLQLDGPTVTAVHDDPTGTASTRICPSWLLLSAEGLGAIVPYLDDGGPPDTLGAFLDRLARTHSVQAHRLPQTGHLRLHCNTPDDLEHARKLLRKGPRHVLGPAPVRASLPEPAS	failed
MSQSSSPQQIPVVVLAGFLGSGKTTLLNHLLHRSGGSRIGAIVNDFGAIEIDAMAVAGALGDSTVSLGNGCLCCAVDAGELDLYLERLAHPSARVDVIVIEASGLAEPQELVRMVLASENARVVYGGLVEVVDAAEFDATRAKHPEVDRHLAMADLVVVNKIDRADDGERVLRAVRSLTDRAAVVPATYGRVDPELLFDCRPTGERIGQLSFDDLHEHRGEEDHHGHLHAAYDSVSFTSEAPMNPRRMMDFLDSRPEGLYRIKGYVDFGTADPRNRYAVHAVGRFLRFYPEPWAPAGPRLTQLVLIGSGIDTAALHKELDACTNDAPHADEHSMWGVLRYVQEQEQEQEQRQETAEAEQAG	failed
MSQVHRILNCRGTRIHAVADSPPDQQGPLVVLLHGFPESWYSWRHQIPALAGAGYRVVAIDQRGYGRSSKYRVQKAYRIKELVGDVVGVLDSYGAEQAFVVGHDWGAPVAWTFAWLHPDRCAGVVGISVPFAGRGVIGLPGSPFGERRPSDYHLELAGPGRVWYQDYFAVQDGIITEIEEDLRGWLLGLTYTVSGEGMMAATKAAVDAGVDLESMDPIDVIRAGPLCMAEGARLKDAFVYPETMPAWFTEADLDFYTGEFERSGFGGPLSFYHNIDNDWHDLADQQGKPLTPPALFIGGQYDVGTIWGAQAIERAHEVMPNYRGTHMIADVGHWIQQEAPEETNRLLLDFLGGLRP	not failed
MSQVRQVGLLAAGCQPWNKDVCAANGDRFAYCATLAIYIYQLDHRYNEFRLHAIMAEHKKTITAISWCPHNPDLFASGSTDNLVIIWNVAEQNVIAKLDNIKETPACLSWCWNTGDAVAFVSQKGPLLIWTISGPDSGVSVHKEAHGFVSDICIFRWHTQKKGKVAFGHTDGSISIFQPDEDDPVTALEWDPLSTDYLLVANLHYGIRLLDSESLYCITTFSFPSAAVSVQCLAWVPSAPGMFITGDSQVGVLRIWNVSRTTPIDSFKLKKAGFHCLHVVNSPPKRKFSVQSSNKNHYMSSTSEAVPPPSLTRNQAFSLPPGHVVCCFLDGGVGLYDMGAKKWDFLRELGHVETIFDCKFKPDDPNLLATASFDGTIKVWDINTLTAVYTSPGNEGVIFALSWAPGDLNCIAGATSRNGAFIWDIQKGKMIQRFNEHGKNGIFYIAWSHKDSKRIATCSGDGFCIIRTLDGKLLHKYKHPAAVFGCDWSQNNKDMIATGCEDKHVRVFYVASSSNQPLKVFSGHTARVFHVKWSPLREGVLCSGSDDGSVRIWDYTQDACISILNGHTAPVRGLMWNTEIPYLLISGSWDYTIKVWDTRGGVCLDTVYDHGADVYGLTCHPSRPFTMASCSRDSTVRLWSLIPLITPLQINILADRPWEEIIGNTDNAIEQASPPLLCGKASKDIKQEVEKLTCNPRVKKLRLFSECLSSPGGSDNLWNLVAVIKGQDDSLLPQNYYKGMMHLKHLIKFRTSEAQELTTIKMSKFGGGIGAPTKENKLKEAAEIHLRLGQIQRYCELMVELGEVA	failed
MSRAALGIRSSWVGFVAAATTAMASTIAPVAYAQVAHHVPNDGCSAVEVAVVGGTTQANIHDDPHDVYSFGKGTNFAVNMTRRFHNVTAWQLPYYSSAGITASNNDAEQKEFPPYAVSKNRGVDVLDAHLSDQAVKCPDTQFVIAGFSQGADIAGDMAERISRGKTNPALTPERVLGVYLLADPGRSDLPMNPTQGQTTTGKSGPLTDNGAVLIETNLGLPGAGSVGIAGPRAAGAFSNLPGKVRSICSSGDPACAVHPKGLLASVGKWANDQNDFEHVPVESVRTMMLNGSFFISLAPHMNKIRGDLYASDPVALKQHFDDASMHPRLTQPERNTLHLVGAEIAGLMGHLKQGRDQVAVGSSDTGLSSGGPRDRLIALEKIVQQQTGLVELQLAVGLMIVHLSYTGDSREVSTVGAQRADDWIDSDMTQLISGYLNTLSVRAPYVTLGERHTFIQKMGWPIWWIVSSIWGQRNHAARGVWEFFGL	failed
MSRDGGDVIETAVKSLGKGFDLTADFRLKYCKDGDGSAGDDRLVVLDQTQNRELHIPGFGVFQNVSADINCDKGERTRFRSDILDFNKMSEYFNQRSSVTGKIPSGNFNATFGFQSGSWATDAANVKSLGLDASVVTLFNLHIHNPNRLRLTDRVRNAVPSSWDPQLLARFIERYGTHVITGVSVGGQDVVVVRQDKSSDLDNDLLRHHLYDLGDQLFTGSCLLSTRRLNKAYHHSHSQPKFPEAFNVFDDKQTVAFNNFSINSQNGITVICAKRGGDGRAKSHSEWLITVPDKPDAINFNFIPITSLLKDVPGSGLLSHAMSLYLRYKPPLMDLQYFLDFSGPRAWAPVHNDLPFGAAPNMASAYPALHINFMGPKLYVNTTPVTSEKNPVTGMRFFLEGKKCNRLAIHLQHLDNTRTTVGEKITDEHIWRGSDQITDNDRYFEPLNGKKFSHVCTVPVKYDPNWIKTTSNHKSQNDVAFIVTGAQLEVKKHGSKSVLHLRLRYTKVSDHYVVQNSWVHGPIGTSQKSGIFSSMSMPLTSGSVHHNMIQKDKNEVVLDSGVFPGGPPVPANNKIVKFVDLSQLCRGPQHSPGHWLVTGVRLYLDKGKLCLHVKFALLHRQRLLVSS	failed
MSRFMARIMVNGLNEPGTLAKVAQTVAGLDVNIRLLNTVRVAADFTEMMLEVEVWDLRQLNQLLAQMKELDCIATVRRLYELEHHHHHH	not failed

Source: a protein production outcome set (Wang et al. 2014)
